This assay addresses C144 (human). As to the kind of experiment: BLI. (BLI is a label-free optical method that tracks binding on a fibre tip over time.)

Our source for the Kd values is publication PMC8277577.

Broadly, the Kd is the free concentration of one partner at which half of the binding sites on the other are occupied at equilibrium, for simple one-to-one binding. Regarding “SARS-CoV-2 receptor binding domain (RBD) (from UniProt P0DTC2 319-539) (domain or fragment)”, the Kd turned out to be 149 nM.
